For 22 sequences, Kd and IC50 results are on record in the Immune Epitope Database (IEDB).

One experiment addresses HLA-A*68:01. Description: IEDB peptide-MHC binding, purified MHC/competitive/radioactivity; filed as Kd, often an IC50 or EC50 that approximates it; ≥ and ≤ were set here for values at or beyond the usual limits of such assays. To be noted: source organism: Dengue virus 2 Jamaica/1409/1983.
In a further experiment the target is HLA-A*31:01. Put plainly: IEDB peptide-MHC binding, purified MHC/competitive/fluorescence; filed as Kd, often an IC50 or EC50 that approximates it; ≥ and ≤ were set here for values at or beyond the usual limits of such assays.
Experiment [1] addresses HLA-A*11:01. Description: IEDB peptide-MHC binding, purified MHC/direct/fluorescence; filed as Kd, often an IC50 or EC50 that approximates it; ≥ and ≤ were set here for values at or beyond the usual limits of such assays.
In experiment [2] the target is HLA-A*03:01. Description: IEDB peptide-MHC binding, purified MHC/competitive/fluorescence; filed as Kd, often an IC50 or EC50 that approximates it; ≥ and ≤ were set here for values at or beyond the usual limits of such assays.
Experiment [3] concerns the target HLA-A*02:01. Description: IEDB peptide-MHC binding, purified MHC/competitive/radioactivity; filed as Kd, often an IC50 or EC50 that approximates it; ≥ and ≤ were set here for values at or beyond the usual limits of such assays.
A further experiment has as its target HLA-A*02:06. The description is as above.
Another experiment concerns the target HLA-A*68:02. Described as above.
Another experiment has as its target HLA-A*02:17. The description is as above.
The target of another experiment is HLA-B*83:01. Put plainly: IEDB peptide-MHC binding, purified MHC/competitive/fluorescence; filed as Kd, often an IC50 or EC50 that approximates it; ≥ and ≤ were set here for values at or beyond the usual limits of such assays. To be noted: source organism: human gammaherpesvirus 4.
For another experiment, the target named is HLA-B*15:42. The experiment is described as above.
The next experiment concerns the target HLA-B*45:06. The description is as above.
The target of experiment [4] is HLA-A*03:01. Put plainly: IEDB peptide-MHC binding, purified MHC/direct/fluorescence; filed as Kd, often an IC50 or EC50 that approximates it; ≥ and ≤ were set here for values at or beyond the usual limits of such assays.
The target in another experiment is HLA-B*46:01. Description: IEDB peptide-MHC binding, purified MHC/competitive/fluorescence; filed as Kd, often an IC50 or EC50 that approximates it; ≥ and ≤ were set here for values at or beyond the usual limits of such assays.
Another experiment has as its target HLA-B*18:01. Described as above.
The target of experiment [5] is HLA-A*02:01. The experiment is described as above. To be noted: source organism: Escherichia coli 536.
The next experiment addresses HLA-B*51:01. The experiment is described as above.
The target of another experiment is HLA-A*26:01. The experiment is described as above.
The target in another experiment is HLA-B*27:03. Described as above.
A further experiment has as its target HLA-A*69:01. The description is as above.
Another experiment addresses HLA-B*39:01. The experiment is described as above.
The target of another experiment is HLA-B*57:01. The description is as above.
The next experiment has as its target HLA-B*15:17. The experiment is described as above.
For experiment [6], the target named is HLA-A*02:01. Put plainly: IEDB peptide-MHC binding, purified MHC/competitive/fluorescence; ≥ and ≤ were set here for values at or beyond the usual limits of such assays. To be noted: source organism: Sudan ebolavirus.
In another experiment the target is HLA-A*24:02. The description is as above. To be noted: source organism: Sudan ebolavirus.
The target of experiment [7] is HLA-A*11:01. The experiment is described as above.
A further experiment concerns the target HLA-A*02:03. Description: IEDB peptide-MHC binding, purified MHC/competitive/radioactivity; filed as Kd, often an IC50 or EC50 that approximates it; ≥ and ≤ were set here for values at or beyond the usual limits of such assays.
The target of the next experiment is HLA-B*15:09. Description: IEDB peptide-MHC binding, purified MHC/direct/fluorescence; filed as Kd, often an IC50 or EC50 that approximates it; ≥ and ≤ were set here for values at or beyond the usual limits of such assays. To be noted: source organism: Burkholderia mallei ATCC 23344.
Another experiment has as its target HLA-B*15:01. Description: IEDB peptide-MHC binding, purified MHC/competitive/fluorescence; filed as Kd, often an IC50 or EC50 that approximates it; ≥ and ≤ were set here for values at or beyond the usual limits of such assays. The note with it: source organism: Homo sapiens.
For experiment [8], the target named is HLA-A*02:01. Description: IEDB peptide-MHC binding, purified MHC/direct/fluorescence; filed as Kd, often an IC50 or EC50 that approximates it; ≥ and ≤ were set here for values at or beyond the usual limits of such assays. To be noted: source organism: Tetraodon nigroviridis.
In the next experiment the target is HLA-B*08:01. Description: IEDB peptide-MHC binding, purified MHC/competitive/radioactivity; filed as Kd, often an IC50 or EC50 that approximates it; ≥ and ≤ were set here for values at or beyond the usual limits of such assays. To be noted: source organism: Dengue virus 3 Singapore/8120/1995.
Setting [9] is: source organism: Bacillus cereus G9241.
Setting [10] is: source organism: Dengue virus 3 China/80-2/1980.
Setting [11] is: source organism: Dengue virus 3 Singapore/8120/1995.
Where [12] appears, read: source organism: Influenza A virus (A/Memphis/1/1978(H1N1)).
The mark [13] stands for this setting: source organism: human gammaherpesvirus 4.
The mark [14] stands for this setting: source organism: Coxiella burnetii.
The mark [15] stands for this setting: source organism: Escherichia coli 536.
Where [16] appears, read: source organism: Sudan ebolavirus.
Where [17] appears, read: source organism: Dengue virus 2 Thailand/NGS-C/1944.
The mark [18] stands for this setting: source organism: Influenza A virus (A/Viet Nam/HN/2004(H5N1)).
Setting [19] is: source organism: Dengue virus 4 Dominica/814669/1981.
Setting [20] is: source organism: West Nile virus.
Setting [21] is: source organism: Dengue virus 2 Jamaica/1409/1983.
Where [22] appears, read: source organism: Yersinia pestis FV-1.
[23] abbreviates: source organism: Yersinia pestis.
Setting [24] is: source organism: Dengue virus 1 Singapore/S275/1990.
[25] abbreviates: source organism: Dengue virus 1 Brazil/97-11/1997.

Usually Kd stands for the concentration at which binding is half-saturated. With TVNPIVTEK, the figures for the Kd in the experiment with HLA-A*68:01, with HLA-A*31:01 (source organism: dengue virus type 2) and in the experiment with HLA-A*11:01 [1] (source organism: Dengue virus) were 26.5 nM, 14500 nM and 2.3 nM, respectively.

As for MLYDRINLR, the Kd with HLA-A*31:01 (setting [9]) was found to be 3.4 nM; with HLA-A*03:01 [2] (setting [9]), 10.7 nM.

For the sequence FVGKTVWFV, the dissociation constant Kd stood at 4.65 nM with HLA-A*02:01 [3] (setting [10]), 8.76 nM with HLA-A*02:06 (setting [11]), 1.85 nM with HLA-A*68:02 (setting [11]) and 28.7 nM with HLA-A*02:17 (setting [10]).

Take RLFKHGLKR: the Kd with HLA-A*31:01 (setting [12]) was found to be 14.5 nM; with HLA-A*03:01 [2] (setting [12]) it was 7.9 nM.

For the sequence SQAAFGLPI, the Kd with HLA-B*83:01 was not below 5000 nM; with HLA-B*15:42 (setting [13]), not below 5000 nM; with HLA-B*45:06 (setting [13]), 600 nM.

Turning to SQIRRFNLR, the Kd with HLA-A*31:01 (source organism: Pseudomonas putida F1) turned out to be 1.02 nM; in the experiment with HLA-A*11:01 [1] (setting [14]), 13.6 nM; in the experiment with HLA-A*03:01 [4] (setting [14]), 1230 nM.

As for RAMDVYCHR, the Kd with HLA-B*46:01 (setting [15]), in the experiment with HLA-B*18:01 (setting [15]), in the experiment with HLA-A*02:01 [5], with HLA-B*51:01 (setting [15]), with HLA-A*26:01 (setting [15]) and with HLA-B*27:03 (setting [15]) was not below 20000 nM in each case. Further, the Kd with HLA-A*69:01 (setting [15]), with HLA-B*39:01 (setting [15]), with HLA-B*57:01 (setting [15]) and with HLA-B*15:17 (setting [15]) was not below 20000 nM each time.

By IC50 is commonly meant the concentration that gives 50% inhibition. A low value points to greater potency in that assay. Consider AIDFLLRRW, for which the IC50 in the experiment with HLA-A*02:01 [6] was 55200 nM; in the experiment with HLA-A*24:02, 38700 nM; with HLA-A*11:01 [7] (setting [16]) it was not below 156000 nM.

In the case of LMMTTIGIV, the values for the Kd with HLA-A*02:01 [3] (setting [17]), with HLA-A*02:03 (source organism: Dengue virus 2 Peru/IQT2913/1996) and with HLA-A*02:17 (setting [17]) were 5.88 nM, 0.9 nM and 183 nM, respectively.

In turn, GEELPTVVL gave a Kd with HLA-B*15:09 not below 20000 nM.

For the sequence SATKRWGFR, in the experiment with HLA-A*11:01 [7] (setting [16]), the concentration for half-maximal inhibition (IC50) is not below 119000 nM.

Take GTFGPVHFR: the Kd with HLA-A*31:01 (source organism: Influenza A virus H3N2) is not above 1 nM; with HLA-A*11:01 [1] (setting [18]) it was 1.6 nM; with HLA-A*03:01 [4] (setting [18]) it was 26 nM.

For the sequence LSMGLITIAV, the Kd with HLA-A*02:01 [3] (setting [19]) was found to be 79.6 nM; with HLA-A*02:06 (setting [19]) it was 30.5 nM; with HLA-A*68:02 (setting [19]), 78.7 nM; with HLA-A*02:17 (setting [19]), 2410 nM.

Take FMDPGIFPR: the Kd in the experiment with HLA-B*46:01 (source organism: Homo sapiens), in the experiment with HLA-B*18:01 (source organism: Homo sapiens), in the experiment with HLA-B*51:01 (source organism: Homo sapiens), in the experiment with HLA-B*15:01, with HLA-A*26:01 (source organism: Homo sapiens) and with HLA-B*27:03 (source organism: Homo sapiens) was not below 20000 nM throughout. Moreover, the Kd with HLA-A*69:01 (source organism: Homo sapiens) was not below 20000 nM; in the experiment with HLA-B*39:01 (source organism: Homo sapiens), not below 20000 nM; in the experiment with HLA-B*57:01 (source organism: Homo sapiens) it was not below 20000 nM; with HLA-B*15:17 (source organism: Homo sapiens), not below 20000 nM; with HLA-A*02:01 [8] it was 9.9 nM.

Regarding VLRKRWTAK, the Kd with HLA-A*31:01 (setting [20]) was 58.6 nM; in the experiment with HLA-A*11:01 [1] (setting [20]), not below 20000 nM.

Consider LVISGVFPV, for which the Kd was determined as 29.3 nM with HLA-A*02:01 [3] (setting [21]); 1.65 nM with HLA-A*02:06 (setting [21]); 0.37 nM in the experiment with HLA-A*68:02 (setting [21]); 14.1 nM in the experiment with HLA-A*02:03 (setting [21]); 1.96 nM with HLA-A*02:17 (setting [21]).

On to FGGFSTLDK, for which the IC50 with HLA-A*11:01 [7] (source organism: Variola virus) was not below 77700 nM.

Sequence TTPMMIQTR yielded an IC50 in the experiment with HLA-A*11:01 [7] (source organism: Vaccinia virus) of 46100 nM.

With SVQWFRLPR, the Kd in the experiment with HLA-A*31:01 (setting [22]) is not above 0.1 nM; with HLA-B*15:42 (setting [22]), not below 5000 nM; with HLA-B*45:06 (setting [22]), not below 5000 nM; with HLA-A*11:01 [1] (setting [23]), not above 1 nM; in the experiment with HLA-A*03:01 [4] (setting [23]), 582 nM.

As for LVMAFIAFL, the Kd worked out at 40.1 nM with HLA-A*02:01 [3] (setting [24]), 14.3 nM with HLA-A*02:06 (setting [25]), 21 nM with HLA-A*68:02 (setting [25]) and 15.4 nM with HLA-A*02:17 (setting [24]).

Take GMLWMADVPL: the values for the Kd with HLA-A*02:01 [3] (setting [10]), with HLA-B*08:01 and with HLA-A*02:17 (setting [10]) were 4.89 nM, 1420 nM and 65.3 nM, respectively.

ISKSMRDQR registered an IC50 in the experiment with HLA-A*11:01 [7] (source organism: Variola virus) of 23300 nM.
